In patent US20150344570A1 (published 2015):

B1: GpH7-A5/GpH7-B3 variant K326_09D/GpL16-k0 (antibody, human IgG1, kappa)
heavy 1: not shown
heavy 2: not shown
light: DIVMTQSPLSLPVTPGEPASISCQASESLVHSNRNTYLHWYLQKPGQSPQLLIYKVSNRFSGVPDRFSGSGSGTDFTLKISRVEAEDVGVYYCSQNTHVPPTFGQGTKVEIERTVAAPSVFIFPPSDEQLKSGTASVVCLLNNFYPREAKVQWKVDNALQSGNSQESVTEQDSKDSTYSLSSTLTLSKADYEKHKVYACEVTHQGLSSPVTKSFNRGEC
notes: also called He Ab K326_09D
B2: GpH7-A5/GpH7-B3 variant I336_03V/GpL16-k0 (antibody, human IgG1, kappa)
heavy 1: not shown
heavy 2: not shown
light: B1 light
notes: also called He Ab I336_03V
B3: GpH7-A5/GpH7-B3 variant I336_06M/GpL16-k0 (antibody, human IgG1, kappa)
heavy 1: not shown
heavy 2: not shown
light: B1 light
notes: also called He Ab I336_06M
B4: GpH7-A5/GpH7-B3 variant K326_19Q/GpL16-k0 (antibody, human IgG1, kappa)
heavy 1: not shown
heavy 2: not shown
light: B1 light
notes: also called He Ab K326_19Q
B5: GpH7-A5/GpH7-B3 variant K334_18N/GpL16-k0 (antibody, human IgG1, kappa)
heavy 1: not shown
heavy 2: not shown
light: B1 light
notes: also called He Ab K334_18N
B6: GpH7-A5/GpH7-B3 variant I336_10E/GpL16-k0 (antibody, human IgG1, kappa)
heavy 1: not shown
heavy 2: not shown
light: B1 light
notes: also called He Ab I336_10E
B7: GpH7-A5/GpH7-B3 variant I332_15Y/GpL16-k0 (antibody, human IgG1, kappa)
heavy 1: not shown
heavy 2: not shown
light: B1 light
notes: also called He Ab I332_15Y
B8: GpH7-A5/GpH7-B3 variant S298_14T/GpL16-k0 (antibody, human IgG1, kappa)
heavy 1: not shown
heavy 2: not shown
light: B1 light
notes: also called He Ab S298_14T
B9: GpH7-A5/GpH7-B3 variant K326_14T/GpL16-k0 (antibody, human IgG1, kappa)
heavy 1: not shown
heavy 2: not shown
light: B1 light
notes: also called He Ab K326_14T
B10: GpH7-A5/GpH7-B3 variant I332_14T/GpL16-k0 (antibody, human IgG1, kappa)
heavy 1: not shown
heavy 2: not shown
light: B1 light
notes: also called He Ab I332_14T
B11: GpH7-A5/GpH7-B3 variant S267_02A/GpL16-k0 (antibody, human IgG1, kappa)
heavy 1: not shown
heavy 2: not shown
light: B1 light
notes: also called He Ab S267_02A
B12: GpH7-A5/GpH7-B3 variant S239_09D/GpL16-k0 (antibody, human IgG1, kappa)
heavy 1: not shown
heavy 2: not shown
light: B1 light
notes: also called He Ab S239_09D
B13: GpH7-A5/GpH7-B3 variant K334_08L/GpL16-k0 (antibody, human IgG1, kappa)
heavy 1: not shown
heavy 2: not shown
light: B1 light
notes: also called He Ab K334_08L
B14: GpH7-A5/GpH7-B3 variant S337_09D/GpL16-k0 (antibody, human IgG1, kappa)
heavy 1: not shown
heavy 2: not shown
light: B1 light
notes: also called He Ab S337_09D
B15: GpH7-A5/GpH7-B3 variant K334_07I/GpL16-k0 (antibody, human IgG1, kappa)
heavy 1: not shown
heavy 2: not shown
light: B1 light
notes: also called He Ab K334_07I
B16: GpH7-A5/GpH7-B3 variant K334_16H/GpL16-k0 (antibody, human IgG1, kappa)
heavy 1: not shown
heavy 2: not shown
light: B1 light
notes: also called He Ab K334_16H
B17: GpH7-A5/GpH7-B3 variant Q295_02A/GpL16-k0 (antibody, human IgG1, kappa)
heavy 1: not shown
heavy 2: not shown
light: B1 light
notes: also called He Ab Q295_02A
B18: GpH7-A5/GpH7-B3 variant K334_15Y/GpL16-k0 (antibody, human IgG1, kappa)
heavy 1: not shown
heavy 2: not shown
light: B1 light
notes: also called He Ab K334_15Y
B19: GpH7-A5/GpH7-B3 variant T335_10E/GpL16-k0 (antibody, human IgG1, kappa)
heavy 1: not shown
heavy 2: not shown
light: B1 light
notes: also called He Ab T335_10E
B20: GpH7-A5/GpH7-B3 variant K334_10E/GpL16-k0 (antibody, human IgG1, kappa)
heavy 1: not shown
heavy 2: not shown
light: B1 light
notes: also called He Ab K334_10E
B21: GpH7-A5/GpH7-B3 variant K334_13S/GpL16-k0 (antibody, human IgG1, kappa)
heavy 1: not shown
heavy 2: not shown
light: B1 light
notes: also called He Ab K334_13S
B22: GpH7-A5/GpH7-B3 variant K334_09D/GpL16-k0 (antibody, human IgG1, kappa)
heavy 1: not shown
heavy 2: not shown
light: B1 light
notes: also called He Ab K334_09D
B23: GpH7-A5/GpH7-B3 variant S267_09D/GpL16-k0 (antibody, human IgG1, kappa)
heavy 1: not shown
heavy 2: not shown
light: B1 light
notes: also called He Ab S267_09D
B24: GpH7-A5/GpH7-B3 variant I332_13S/GpL16-k0 (antibody, human IgG1, kappa)
heavy 1: not shown
heavy 2: not shown
light: B1 light
notes: also called He Ab I332_13S
B25: GpH7-A5/GpH7-B3 variant I336_02A/GpL16-k0 (antibody, human IgG1, kappa)
heavy 1: not shown
heavy 2: not shown
light: B1 light
notes: also called He Ab I336_02A
B26: GpH7-A5/GpH7-B3 variant S337_10E/GpL16-k0 (antibody, human IgG1, kappa)
heavy 1: not shown
heavy 2: not shown
light: B1 light
notes: also called He Ab S337_10E
B27: GpH7-A5/GpH7-B3 variant T335_07I/GpL16-k0 (antibody, human IgG1, kappa)
heavy 1: not shown
heavy 2: not shown
light: B1 light
notes: also called He Ab T335_07I
B28: GpH7-A5/GpH7-B3 variant I336_09D/GpL16-k0 (antibody, human IgG1, kappa)
heavy 1: not shown
heavy 2: not shown
light: B1 light
notes: also called He Ab I336_09D

These binders were tested against T1, FcγRIIIa extracellular domain with C-terminal His tag (human, UniProt P08637 17-208) (assay: SPR Biacore, captured antibody, FcγR analyte, relative binding).
T1 construct: extracellular domain; also called FcgRIIIa; 3a; not shown: His tag attached to the C terminus
T1 sequence (P08637 17-208): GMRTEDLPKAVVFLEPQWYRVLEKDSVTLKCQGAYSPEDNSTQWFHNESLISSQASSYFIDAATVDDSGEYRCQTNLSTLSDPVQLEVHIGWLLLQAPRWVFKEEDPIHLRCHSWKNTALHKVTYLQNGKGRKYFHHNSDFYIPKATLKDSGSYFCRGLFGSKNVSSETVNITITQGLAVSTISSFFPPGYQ
Procedure, shortened: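 FcγR flowed over antibodies bound to immobilized antigen peptide (CM5 or SA chip), 25° C, HBS-EP+.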

| He/Con_3a | Binder |
| --- | --- |
| 134 % of HeCon Ab GpH7-A5/GpH7-B3/GpL16-k0 (=100) | B1 |
| 112 % of HeCon Ab GpH7-A5/GpH7-B3/GpL16-k0 (=100) | B2 |
| 109 % of HeCon Ab GpH7-A5/GpH7-B3/GpL16-k0 (=100) | B3 |
| 106 % of HeCon Ab GpH7-A5/GpH7-B3/GpL16-k0 (=100) | B4 |
| 136 % of HeCon Ab GpH7-A5/GpH7-B3/GpL16-k0 (=100) | B5 |
| 119 % of HeCon Ab GpH7-A5/GpH7-B3/GpL16-k0 (=100) | B6 |
| 101 % of HeCon Ab GpH7-A5/GpH7-B3/GpL16-k0 (=100) | B7 |
| 113 % of HeCon Ab GpH7-A5/GpH7-B3/GpL16-k0 (=100) | B8 |
| 126 % of HeCon Ab GpH7-A5/GpH7-B3/GpL16-k0 (=100) | B9 |
| 120 % of HeCon Ab GpH7-A5/GpH7-B3/GpL16-k0 (=100) | B10 |
| 150 % of HeCon Ab GpH7-A5/GpH7-B3/GpL16-k0 (=100) | B11 |
| 166 % of HeCon Ab GpH7-A5/GpH7-B3/GpL16-k0 (=100) | B12 |
| 143 % of HeCon Ab GpH7-A5/GpH7-B3/GpL16-k0 (=100) | B13 |
| 110 % of HeCon Ab GpH7-A5/GpH7-B3/GpL16-k0 (=100) | B14 |
| 151 % of HeCon Ab GpH7-A5/GpH7-B3/GpL16-k0 (=100) | B15 |
| 134 % of HeCon Ab GpH7-A5/GpH7-B3/GpL16-k0 (=100) | B16 |
| 106 % of HeCon Ab GpH7-A5/GpH7-B3/GpL16-k0 (=100) | B17 |
| 141 % of HeCon Ab GpH7-A5/GpH7-B3/GpL16-k0 (=100) | B18 |
| 107 % of HeCon Ab GpH7-A5/GpH7-B3/GpL16-k0 (=100) | B19 |
| 181 % of HeCon Ab GpH7-A5/GpH7-B3/GpL16-k0 (=100) | B20 |
| 145 % of HeCon Ab GpH7-A5/GpH7-B3/GpL16-k0 (=100) | B21 |
| 160 % of HeCon Ab GpH7-A5/GpH7-B3/GpL16-k0 (=100) | B22 |
| 181 % of HeCon Ab GpH7-A5/GpH7-B3/GpL16-k0 (=100) | B23 |
| 104 % of HeCon Ab GpH7-A5/GpH7-B3/GpL16-k0 (=100) | B24 |
| 111 % of HeCon Ab GpH7-A5/GpH7-B3/GpL16-k0 (=100) | B25 |
| 105 % of HeCon Ab GpH7-A5/GpH7-B3/GpL16-k0 (=100) | B26 |
| 107 % of HeCon Ab GpH7-A5/GpH7-B3/GpL16-k0 (=100) | B27 |
| 106 % of HeCon Ab GpH7-A5/GpH7-B3/GpL16-k0 (=100) | B28 |
